Here are results for 11 molecules from patent US20170015742A1 (published 2017).

Assay [1] deals with recombinant human PDGF-BB (human, UniProt P01127 82-190). Briefly: cell-based or functional assay.
The target of assay [2] is T1, recombinant human VEGF165 (human, UniProt P15692 207-395).
T1 construct: also called hVEGF165; huVEGF-A165
Put plainly: competition ELISA: DVD-Ig titrated against biotinylated hVEGF165 binding to coated hVEGFR2-Fc. The procedure:
To identify molecules that could block the binding of hVEGF₁₆₅ to the hVEGF-R2 (KDR/Flk-1) receptor, a competition ELISA was performed. […] Plates were then washed four times with wash buffer (TBS, 0.05% Tween-20) and blocked with Superblock blocking buffer (Thermo Scientific, cat#37535). […] The pre-incubated sample/hVEGF₁₆₅ complex was added to the coated plate at 50 μL in duplicate and incubated for 30 minutes at 25° C. with shaking. Following incubation, plates were washed four times with wash buffer. Streptavidin-polyHRP-40 (Fitzgerald cal#65r-s104phrp) was diluted in assay diluent (10% Superblock containing 0.05% surfactamps) and added to plates (50 μL) for 45 minutes at 25° C. with shaking. Plates were washed four times with wash buffer and developed with the addition of Enhanced K-blue TMB substrate (Neogen cat#308177). The reaction was stopped with 2N sulfuric acid (VWR, cat# BDH3500-1) and the absorbance was read at 450 nm-570 nm. A decrease in observed optical density indicates the test molecule is blocking the hVEGF₁₆₅ binding to the hVEGF-R2-Fc. Data was analyzed using Softmax Pro 4.8 software and IC₅₀ values calculated using a sigmoidal dose response (variable slope) fit in GraphPad Prism 5.
On the technique in general: ELISA stands for enzyme-linked immunosorbent assay.

The target in assay [3] is T1, recombinant human VEGF165. Put plainly: cell-based or functional assay.
The target of assay [4] is T2, Human PDGF-BB (human, UniProt P01127 82-190).
T2 construct: Recombinant human PDGF-BB, a homodimer of two B chains; also called hPDGF-BB; huPDGF-BB
T2 sequence (P01127 82-190 limits assumed): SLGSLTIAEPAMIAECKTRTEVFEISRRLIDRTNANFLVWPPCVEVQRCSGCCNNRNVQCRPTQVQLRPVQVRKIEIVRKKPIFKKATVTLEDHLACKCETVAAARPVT
Briefly: SPR (Biacore), antibody captured via anti-human Fc, antigen in solution; footnote *: heterogeneous off-rate. The procedure: For example, approximately 9000 RU of goat anti-human Fc specific polyclonal antibody (Thermo Fisher Scientific Inc., Rockford, Ill.) diluted in 10 mM sodium acetate (pH 4.5) is directly immobilized across a CM5 research grade biosensor chip using a standard amine coupling kit according to manufacturer's instructions and procedures at 25 μg/ml. Unreacted moieties on the biosensor surface were blocked with ethanolamine. For kinetic analysis, rate equations derived from the 1:1 Langmuir binding model were fitted simultaneously to multiple antigen injections (using global fit analysis) with the use of Scrubber 2 (BioLogic Software), Biacore Biaevaluation 4.0.1 software or Biacore T100 Evaluation software. Purified antibodies or DVD-Ig molecules were diluted in running buffer for capture across goat anti-human Fc reaction surfaces. Antibodies or DVD-Ig molecules to be captured as a ligand (1 μg/ml) were injected over reaction matrices at a flow rate of 10 μl/minute. During the assay, all measurements were referenced against the capture surface alone (i.e., with no captured antibody or DVD-Ig molecule). […] The equilibrium dissociation constant KD (M) of the reaction between antibodies and the target antigen was then calculated from the kinetic rate constants by the following formula: KD=Koff/Kₒₙ. Binding was recorded as a function of time and kinetic rate constants were calculated.
A general note: Surface plasmon resonance follows binding to a sensor surface in real time, without labels.

Assay [5] concerns the target T2, Human PDGF-BB. Put plainly: SPR (Biacore), antibody captured via anti-human Fc, antigen in solution. The method in brief:
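Antibodies or DVD-Ig molecules (1 μg/ml) were captured on an anti-human Fc CM5 surface, with antigen injected in solution and responses referenced to the capture-only surface. Rate constants came from a global 1:1 Langmuir fit, and KD = koff/kon.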

Assay [6] deals with T3, recombinant human PDGF-BB (human, UniProt P01127 82-190).
T3 construct: Bought (CST cat#8912BF), biotinylated for the ELISAs; Dimer of two B chains; also called huPDGF-BB; hPDGF-BB
Briefly: competition ELISA: blocks biotin-hPDGF-BB binding to coated hPDGF-Rβ-Fc. The protocol: Plates were then washed four times with wash buffer (TBS, 0.05% Tween-20) and blocked with Superblock blocking buffer (Thermo Scientific, cat#37535). During the blocking step, supernatants, antibodies, benchmark compounds or DVD-Ig were diluted in assay diluent (10% Superblock containing 0.05% surfactamps) and an eight point titration of each sample molecule was performed. […] Following incubation, plates were washed four times with wash buffer. Detection reagent Streptavidin-polyHRP-40 (Fitzgerald, cat#65r-s104phrp) was diluted in assay diluent and added to plates (50 μL) for 45 minutes at 25° C. with shaking. Plates were washed four times with wash buffer and developed with the addition of Enhanced K-blue TMB substrate (Neogen, cat#308177). The reaction was stopped with 2N sulfuric acid (VWR, cat# BDH3500-1) and the absorbance was read at 450 nm-570 nm. […] Data was analyzed using Softmax Pro 4.8 software and IC₅₀ values calculated using a sigmoidal dose response (variable slope) fit in GraphPad Prism 5.
T3 sequence (P01127 82-190 limits assumed): as above

Assay [7] deals with T3, recombinant human PDGF-BB. Briefly: cell-based or functional assay. The source holds these as a separate data set.

T1 sequence (P15692 other isoform, or with tags, fused parts or gaps limits assumed): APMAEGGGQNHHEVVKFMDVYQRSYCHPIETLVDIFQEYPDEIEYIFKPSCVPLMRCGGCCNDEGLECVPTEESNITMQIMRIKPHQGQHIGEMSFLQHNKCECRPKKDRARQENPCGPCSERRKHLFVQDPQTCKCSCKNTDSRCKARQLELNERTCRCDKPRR

B1: 4G8.3-SL-9E8.4 DVD-Ig (PR-1564012) (bispecific antibody, human IgG1, kappa, L234A L235A)
heavy: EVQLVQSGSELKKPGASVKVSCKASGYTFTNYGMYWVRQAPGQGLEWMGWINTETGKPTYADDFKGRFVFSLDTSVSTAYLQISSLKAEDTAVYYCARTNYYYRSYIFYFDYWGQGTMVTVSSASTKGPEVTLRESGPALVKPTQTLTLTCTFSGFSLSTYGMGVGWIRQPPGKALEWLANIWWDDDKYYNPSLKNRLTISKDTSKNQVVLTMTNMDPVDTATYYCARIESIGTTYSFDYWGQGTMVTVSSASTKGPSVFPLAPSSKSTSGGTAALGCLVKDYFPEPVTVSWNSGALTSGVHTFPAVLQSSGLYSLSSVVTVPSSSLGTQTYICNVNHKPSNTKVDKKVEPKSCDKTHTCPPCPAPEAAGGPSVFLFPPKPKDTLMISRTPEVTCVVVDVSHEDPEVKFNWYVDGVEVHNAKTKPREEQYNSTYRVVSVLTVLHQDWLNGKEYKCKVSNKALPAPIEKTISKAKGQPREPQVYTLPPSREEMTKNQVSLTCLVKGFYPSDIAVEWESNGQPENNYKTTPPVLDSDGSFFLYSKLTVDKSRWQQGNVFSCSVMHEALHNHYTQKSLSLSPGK
light: DTVLTQSPATLSLSPGERATLSCRASESVSTHMHWYQQKPGQAPRLLIYGASNLESGVPARFSGSGSGTDFTLTISSLEPEDFAVYFCQQSWNDPFTFGQGTKLEIKRTVAAPSVFIFPPEFVLTQSPGTLSLSPGERATLSCERSSGDIGDSYVSWYQQKPGQAPRLVIYADDQRPSGIPDRFSGSGSGTDFTLTISRLEPEDFAVYYCQSYDINIDIVFGGGTKVEIKGTVAAPSVFIFPPSDEQLKSGTASVVCLLNNFYPREAKVQWKVDNALQSGNSQESVTEQDSKDSTYSLSSTLTLSKADYEKHKVYACEVTHQGLSSPVTKSFNRGEC
notes: DVD-Ig, outer hBDB-4G8.3 (VEGF), inner hBDI-9E8.4 (PDGF); IgG1 L234A, L235A / kappa
The IC50 is the concentration that inhibits the measured activity by half. On to B1, for which the “NIH-3T3 hPDGF-BB Potency IC50” value in assay [1] stood at 0.365 nM. For the same molecule, in assay [2], the 50% inhibitory concentration (IC50) was found to be 0.086 nM.

B2: 4G8.3-GS-9E8.4 DVD-Ig (PR-1564010) (bispecific antibody, human IgG1, kappa, L234A L235A)
heavy: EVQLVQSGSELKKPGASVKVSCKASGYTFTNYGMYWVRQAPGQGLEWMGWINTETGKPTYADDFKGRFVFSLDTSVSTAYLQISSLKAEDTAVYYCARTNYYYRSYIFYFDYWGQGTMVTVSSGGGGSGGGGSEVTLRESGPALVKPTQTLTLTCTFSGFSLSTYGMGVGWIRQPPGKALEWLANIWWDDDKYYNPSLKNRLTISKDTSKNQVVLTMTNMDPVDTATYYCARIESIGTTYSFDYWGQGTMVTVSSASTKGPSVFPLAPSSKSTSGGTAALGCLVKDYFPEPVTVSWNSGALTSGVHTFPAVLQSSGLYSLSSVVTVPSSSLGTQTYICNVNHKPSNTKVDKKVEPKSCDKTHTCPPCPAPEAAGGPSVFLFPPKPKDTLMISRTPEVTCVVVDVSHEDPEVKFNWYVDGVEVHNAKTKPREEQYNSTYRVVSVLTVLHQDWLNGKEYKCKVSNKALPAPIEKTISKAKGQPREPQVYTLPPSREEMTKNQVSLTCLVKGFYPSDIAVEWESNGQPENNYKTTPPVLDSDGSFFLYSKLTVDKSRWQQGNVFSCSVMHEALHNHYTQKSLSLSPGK
light: DTVLTQSPATLSLSPGERATLSCRASESVSTHMHWYQQKPGQAPRLLIYGASNLESGVPARFSGSGSGTDFTLTISSLEPEDFAVYFCQQSWNDPFTFGQGTKLEIKRGGSGGGGSGEFVLTQSPGTLSLSPGERATLSCERSSGDIGDSYVSWYQQKPGQAPRLVIYADDQRPSGIPDRFSGSGSGTDFTLTISRLEPEDFAVYYCQSYDINIDIVFGGGTKVEIKGTVAAPSVFIFPPSDEQLKSGTASVVCLLNNFYPREAKVQWKVDNALQSGNSQESVTEQDSKDSTYSLSSTLTLSKADYEKHKVYACEVTHQGLSSPVTKSFNRGEC
notes: as for B1
As for B2, in assay [3], the “HMVEC-d hVEGF165 Potency IC50” value came out at 0.096 nM. Besides, the IC50 in assay [2] turned out to be 0.126 nM.

B3: hBDI-5H1.13 (antibody, V domains shown)
VH: EVTLKESGPALVKPTQTLTLTCTFSGFSLSTFGMGVGWIRQPPGKALEWLANIWWDDDKYYNPSLKNRLTISKDTSKNQAVLTITNMDPVDTATYYCARISTGISSYYVMDAWGQGTTVTVSS
VL: DFQLTQSPSSLSASVGDRVTITCERSSGDIGDTYVSWYQQKPGKAPKNVIYGNDQRPSGVPSRFSGSGSGNSATLTISSLQPEDFATYFCQSYDSDIDIVFGQGTKVEIK
notes: Humanized IgG
One may read the Kd as the constant that tells how readily two partners part at equilibrium. A higher Kd goes with weaker binding. In general, kon refers to the rate constant with which the complex forms. Lower therefore signals slower complex formation. The molecule B3 displayed a Kd with Human PDGF-BB [4] of at most 0.49 nM. For the same molecule, in the assay with Human PDGF-BB [5], the kon was at least 1e+07 M⁻¹ s⁻¹.

B4: hBDI-9E8.8 (antibody, V domains shown)
VH: EVTLRESGPALVKPTQTLTLTCTFSGFSLSTYGMGVGWIRQPPGKGLEWLANIWWDDDKYYNPSLKNRLTISKDTSKNQAVLTITNMDPVDTATYYCARIESIGTTYSFDYWGQGTMVTVSS
VL: EFVLTQSPGTLSLSPGERATLSCERSSGDIGDSYVSWYQQKPGQAPRLVIYADDQRPSGIPDRFSGSGSGTDFTLTISRLEPEDFAVYYCQSYDINIDIVFGGGTKVEIK
notes: Humanized IgG
As to B4, the dissociation constant Kd with Human PDGF-BB [4] was at most 0.017 nM. Also, the kon in the assay with Human PDGF-BB [5] was at least 1e+07 M⁻¹ s⁻¹.

B5: hBDI-9E8.13 (antibody, V domains shown)
VH: EVTLRESGPALVKPTQTLTLTCTFSGFSLSTYGMGVGWIRQPPGKGLEWLANIWWDDDKYYNPSLKNRLTISKDTSKNQAVLTITNMDPVDTATYYCARIESIGTTYSFDYWGQGTMVTVSS
VL: DFQLTQSPSSLSASVGDRVTITCERSSGDIGDSYVSWYQQKPGKAPKNVIYADDQRPSGVPSRFSGSGSGNSASLTISSLQPEDFATYYCQSYDINIDIVFGQGTKVEIK
notes: Humanized IgG
B5 returned a dissociation constant (Kd) with Human PDGF-BB [4] of at most 0.1 nM. In the assay with Human PDGF-BB [5], this molecule yielded an on-rate constant (kon) of at least 1e+07 M⁻¹ s⁻¹.

B6: hBDI-5H1.8 (antibody, V domains shown)
VH: EVTLKESGPALVKPTQTLTLTCTFSGFSLSTFGMGVGWIRQPPGKALEWLANIWWDDDKYYNPSLKNRLTISKDTSKNQAVLTITNMDPVDTATYYCARISTGISSYYVMDAWGQGTTVTVSS
VL: EFVLTQSPGTLSLSPGERATLSCERSSGDIGDTYVSWYQQKPGQAPRLVIYGNDQRPSGIPDRFSGSGSGTDFTLTISRLEPEDFAVYYCQSYDSDIDIVFGGGTKVEIK
notes: Humanized IgG
B6 gave a dissociation constant (Kd) with Human PDGF-BB [4] of at most 72 nM. Further, the kon with Human PDGF-BB [5] was at least 1e+07 M⁻¹ s⁻¹.

B7: hBDI-5H1.7 (antibody, V domains shown)
VH: EVTLKESGPALVKPTQTLTLTCTFSGFSLSTFGMGVGWIRQPPGKALEWLANIWWDDDKYYNPSLKNRLTISKDTSKNQAVLTITNMDPVDTATYYCARISTGISSYYVMDAWGQGTTVTVSS
VL: EIVLTQSPGTLSLSPGERATLSCERSSGDIGDTYVSWYQQKPGQAPRLLIYGNDQRPSGIPDRFSGSGSGTDFTLTISRLEPEDFAVYYCQSYDSDIDIVFGGGTKVEIK
notes: Humanized IgG
Consider B7, for which the Kd with Human PDGF-BB [4] was at most 2.9 nM. Moreover, the kon with Human PDGF-BB [5] was at least 1e+07 M⁻¹ s⁻¹.

B8: BDI-1E1-D5 (antibody, IgG2b, V domains shown)
VH: EVKLQQSGDELVRPGASVKMSCKASGYTFTDYVMHWVKQSPGQGLEWIGTIIPLIDTTSYNQKFKGKATLTADKSSNTAYMELSRLTSEDSAVYYCARTSPYYYSSYDVMDAWGQGASVTVSS
VL: NIQLTQSPSLLSASVGDRVTLSCKGSQNINNYLAWYQQKLGEAPKLLIYKTNNLQTGIPSRFSGCGSGTDYTLTISSLHSEDLATYYCYQYDNGYTFGAGTKLELK
notes: Rat hybridoma monoclonal antibody
Take B8: the IC50 in assay [6] is over 10 nM. Besides, in assay [7], the “Phospho-Tyr751/hPDGF-BB Neutralization” value was 1.06 nM and the “huPDGF-BB Neutralization Potency (nM) in NIH-3T3 Cells” value (from here on “huPDGF-BB Neutralization Potency (nM)”) was over 5 nM.

B9: 4G8.3-LS-9E8.4 DVD-Ig (PR-1564013) (bispecific antibody, human IgG1, kappa, L234A L235A)
heavy: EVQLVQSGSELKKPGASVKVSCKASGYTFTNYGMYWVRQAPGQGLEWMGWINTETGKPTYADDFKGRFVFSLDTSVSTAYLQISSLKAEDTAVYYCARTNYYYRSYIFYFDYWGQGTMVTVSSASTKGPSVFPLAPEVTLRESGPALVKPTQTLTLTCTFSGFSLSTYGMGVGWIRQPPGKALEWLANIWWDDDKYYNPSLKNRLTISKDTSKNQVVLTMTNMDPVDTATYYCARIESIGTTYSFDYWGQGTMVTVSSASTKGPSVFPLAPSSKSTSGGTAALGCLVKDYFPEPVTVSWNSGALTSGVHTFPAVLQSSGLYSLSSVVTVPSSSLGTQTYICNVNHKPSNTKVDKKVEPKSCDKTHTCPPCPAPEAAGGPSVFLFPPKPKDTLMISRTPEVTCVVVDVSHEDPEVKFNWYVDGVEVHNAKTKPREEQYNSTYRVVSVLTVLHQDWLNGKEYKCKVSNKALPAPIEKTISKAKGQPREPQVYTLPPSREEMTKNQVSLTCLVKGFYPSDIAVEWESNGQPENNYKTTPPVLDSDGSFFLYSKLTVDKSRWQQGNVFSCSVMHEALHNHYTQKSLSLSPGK
light: DTVLTQSPATLSLSPGERATLSCRASESVSTHMHWYQQKPGQAPRLLIYGASNLESGVPARFSGSGSGTDFTLTISSLEPEDFAVYFCQQSWNDPFTFGQGTKLEIKRTVAAPEFVLTQSPGTLSLSPGERATLSCERSSGDIGDSYVSWYQQKPGQAPRLVIYADDQRPSGIPDRFSGSGSGTDFTLTISRLEPEDFAVYYCQSYDINIDIVFGGGTKVEIKGTVAAPSVFIFPPSDEQLKSGTASVVCLLNNFYPREAKVQWKVDNALQSGNSQESVTEQDSKDSTYSLSSTLTLSKADYEKHKVYACEVTHQGLSSPVTKSFNRGEC
notes: as for B1
Consider B9, for which the “HMVEC-d hVEGF165 Potency IC50” value in assay [3] is 0.06 nM. Further, the “NIH-3T3 hPDGF-BB Potency IC50” value in assay [1] is 0.152 nM. Also, the half-maximal inhibitory concentration (IC50) in assay [2] was 0.092 nM.

B10: BDI-5G2-F9 (antibody, IgG2b, V domains shown)
VH: QVTLKESGPGILQPSQTLSLTCTFSGFSLSTFGMGVGWIRQPSGKGLEWLANIWWDDDKYYNPSLKNRLTISKDTSNSQAFLEITNVDTADTATYYCARISTGISSYYVMDAWGQGASVTVSS
VL: QFTLTQPKSVSGSLRSTITIPCERSSGDIGDTYVSWYQQHLGRPPINVIYGNDQRPSEVSDRFSGSIDSSSNSASLTITNLQMDDEADYFCQSYDSDIDIVFGGGTKLTVL
notes: as for B8
As to B10, the half-maximal inhibitory concentration (IC50) in assay [6] is 1.06 nM. Further, in assay [7], the “Phospho-Tyr751/hPDGF-BB Neutralization” value was 0.923 nM and the “huPDGF-BB Neutralization Potency (nM)” value was 0.741 nM.

B11: BDI-6A3-A9 (antibody, IgG2b, V domains shown)
VH: EVQLVESGGGLVQPGRSLKFSCAASGFSFSDSAMAWVRQAPKKGLEWVATIIYDGSGTYYRDSVKGRFTISRDNAKSTLYLQMDSLRSEDTATYYCARLGFNYGNYGYYVMDAWGQGASVTVSS
VL: QFTLTQPKSVSGSLRNTITIPCERSSGDIGDSYVSWYQQHLGRPPINVIFADDQRPSEVSDRFSGSIDSSSNSASLTITNLQMDDEADYFCQSYDSNIDINIVFGGGTKLTVL
notes: as for B8
Take B11: the IC50 in assay [6] is 3.23 nM. Further, in assay [7], the “Phospho-Tyr751/hPDGF-BB Neutralization” value was determined as 1.62 nM and the “huPDGF-BB Neutralization Potency (nM)” value was over 5 nM.
